Measurements taken from publication doi:10.1101/2025.02.28.640611 (bioRxiv, 2025).

Target: the molecule itself
Experiment: cross-linking

B1: S. mutans ClpX with a C-terminal hexahistidine tag (enzyme)
chain: not shown
  stoichiometry N: 6
